Substrate in this data set: O=S(O)O
The data set can be described thus: purified protein. The conditions noted are these: 400 µM ferricyanide as electron acceptor, sulfite 2.5-400 µM, 20 mM Tris-HCl pH 8.0 (general SO assay). The format is biochemical, Zea mays.

As a reminder, the Km is the substrate concentration at which the rate is half of its maximum.

B1: ZmSO (recombinant maize sulfite oxidase) (Zea mays subsp. mays) (protein)
chain: MPGLTAPSDYAEEPPRHPALKINSKEPFNAEPHRSELVASYITPVDFFYKRNHGPIPKVEDLSRYTVSISGLVNKSIQLSMADIWSLPKYNVTATLQCAGNRRTAMSNVRKVRGVGWDISALGTATWGGAKLSDVLELVGIPKLSSVTSLGGKHVEFVSVDKCKEEKGGPYTASIPLNQATNPDADVLLAYEMNGEVLNRDHGYPLRVVVPGVIGARSVKWLDSINVKEEECQGFFMQKDYKMFPPTVDWDNINWSTRRPQMDFPVQSAICTLEDVDVIKEGQARIAGYALSGGGRGIERVDVSADGGKTWVEARRYQKDNVAYVSDGPQSDKWAWVLFEATLDVPANPEIVVKAVDSAANVQPEKVEDIWNLRGILNTSWHRIKIQRSSCVERSKL
notes: 45 kDa; Mo domain, no heme domain; primers give N-terminus MPGLTA
Take B1: the Km is 21.4 ± 0.32 µM.

These data come from publication PMC3365070, “Overexpression of a Maize Sulfite Oxidase Gene in Tobacco Enhances Tolerance to Sulfite Stress via Sulfite Oxidation and CAT-Mediated H2O2 Scavenging” (PLoS ONE, 2012).
